Experiment: yeast display, Sf9 membrane polyspecificity reagent, FACS + sequencing; frameworks hold sequencing errors
Procedure, shortened: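 Nanobodies came from a synthetic yeast display library in Saccharomyces cerevisiae BJ5465, induced with galactose for 36–48 hours and stained for 1 hour at 4 °C with 10% biotinylated, detergent-solubilized Sf9 membrane reagent. Cells were enriched on streptavidin microbeads and then FACS-sorted, with low and high (top ~1%) gates set on anti-HA fluorescence for expression and streptavidin fluorescence for reagent binding. Each polyreactivity label reflects the gate a clone came from. Genes were amplified by colony PCR, sequenced by MiSeq 2 × 250 and filtered by CDR length.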

| Sequence | polyreactivity (PSR sort gate) |
| --- | --- |
| QVQLVESGGGLVQAGGSLRLSCAASGRTFERYAMGWYRQAPGKERELVAAITSGGSTYYADSVKGRFTISRDNAKNTVYLQMNSLKPEDTAVYYCATSNWWGYDYWGQGTQVTVSS | high polyreactivity |
| QVQLVESGGGLVQAGGRLRLTCAASASIFHYNSMGWYRQATGKQRELVAAITSGGSTYADSVKGRFTISRDNAKNTVYLQMNSLKPEDTAVYYCNADSVGPRGDLGYWGQGTQVTVSS | low polyreactivity |
| QVHHVDSGGGIVKAGGSLRLSCPASGFIFPRNVLGWSRQEPGKERELVAAISRSGGSTYYADSVKGRFTISRDNAKNTVYLPMNSLKPEDTAVYYGGKRTFYNGEFWGQGTQVTVSS | low polyreactivity |
| QVQLVESGGGLVQAGGSLPLSCAASGRIFKDNAMGWYRQAPGNEREMVAAISSGASTSYADSVKGRFTISRDYAKNTVYLQRNSLKPEDTAVYYCNGGGDLYYPGWLFDYWGQGTQVTVSS | low polyreactivity |
| QVQLVESGGGLVQAGGSLRLSCAASGRTFWVYAMGWYRQAPGKERELVAAISWRAGSTYYADSVKGRFTISRDNAKNTVYLLMNSLKPEVTAVYYCAAETYTTLDYWGQGTQVTVSS | high polyreactivity |
| QVQLVESGGGLVQAGGSLRLSCAASGSTFDIYALGWDRQAPGKEREMVAVISGGDGSTYYADSVKGRFTISRDNEKNTVYLQMNSLKPEETAVYYFAADRGTVSYLYSPRAVDYWGQGTQVTVSS | low polyreactivity |
| QVQLLESGGGIVQAGGSLRLSCAASGRIFVPYAMGWYRQAPGKERELVAAISGRGDSTYYADSVKGRFTISRDNAKNSVYLQMNSLKPEDTAVYYCAKYRPYYTPSYWSRYDYWGQGTQVSVSS | high polyreactivity |
| QVQLVESGGGLVQAGGSLRLSCAASGRTLFGNAMGWYRQAPGKERELVAAISRRGGSTSYADSVKGRFTISRDNAKNTVYLQMNSLKPEDTAVYYCAAAQGKYTGTHYPYDYWGQGTQVTVSS | high polyreactivity |
| QVQLVESGGGIVQAGGSLRLSCAASGFIFKRYAMGWYRQAPGKERELVAAITTSGGRTYYADSVKGRFTISRDNAKNTVYLLMNSLKPEDTAVYYCNADYGTYWWPYYYWGQGTQVTVSS | high polyreactivity |
| QVQLVESGGGLVQAGGSLRLSCAASGSIFGRNDMGWYRQAPRKERELLARITRGGSTNYADSVKGRVTISRDNAKYTVYLQMNSLKPEDTAVYYCAAGARQYRGVPDRYGYWGQGTQVTVSS | low polyreactivity |
| QVQLVESGGGLVQAGGSLRLSCAASGFIFRSYAMGWYRQAPGKEREFVASISSRGGTTYYADSVKGRFTISRDNAKNTVYLQMNSLKTEDTAVYYCYAKRRYGPDKYDYWGQGTQVTVSS | high polyreactivity |
| QVQLVESGGGLVQAGGSLRLSCAASGFIFITYAMGWYRQAPGKEMELVAAITYSDGSTYYADSVKGRFTISRDNAKNTVYLQMNSLKPEDTAVYYCAADSSTFPADYYWGKGTQVTVSS | low polyreactivity |
| QVQLVESGGGLVQAGGSLRLSCAASGRTFVPYAMGRYRQAPGKERELVAAISARGSSTYYADSVKGRFTISRDNAKNTVYLQMNSLKPEDTAVYYCNAVGARVASATGMEYWGQGTQVTVSS | high polyreactivity |
| QVQLVESGGGLVQAGGSLRLSCAASGFTFDWNSMGCYRQAPGQERELVATIRWSVGSTYYADSVKGRFTISRDNAKNTVYLQMNSLKPEDTAVYYCAADSQWSYPDYPGEYAYDYWGQGTQVTVSS | low polyreactivity |
| QVQLVESGGGLVQAGGSLRLSCAASGRIFGRYGMGWYRQAPGKERELVAAISRSGDRTYYADSVKGRFTISRDNAKNTVYLQMNSLKPEDTAVYYCAAYSYRYDYWGQGTQVTVSS | high polyreactivity |
| QVQLVESGGGLVQAGGSLRLSCAASRSIFGTYAMGWYRQAPGKERELVAAISYSGGSTYYADSVKGRFTISRDNGKYTVYLQMNSLKPEDTAVYYCNKSRFYWGYYWGQGTQVTVSS | low polyreactivity |

| Sequence | polyreactivity (PSR sort gate) |
| --- | --- |
| QVQLVESGGGLVQAGGSLRLSCAASGFIFLGYAMGWYRQAPGKERELVAAISSDSDTNYADSVKGRFTISRDNAKNTVYLQMNSLKPEDTAVYYCNADIDSYREMDYWGQGTQVTVSS | low polyreactivity |
| QVQLVESGGGLVQAGGSLRLICAASGSTLPGYVKGWYRQAPGKERELVAAITKSGGSTYYADSVKGRFTISRDNAKNTVYLQMNSLKPEDTAVYYCAVGVKAQIAGDYWGQGTQVTVSS | low polyreactivity |
| QVQLVESGGGLVQAGGSLSLTCAASGSTFDWYAMRLYRQAPGKERELVAASTSGGSTYYADSVKGRFTISRDNAKITVYLQMNSLKPEDTAVYYCAAESRQVRYILYYYWGQGTQVTVSS | low polyreactivity |
| QVQLVESGGGLVQAGGSLRLSCAASGLIFGYYAMGWYRQAPGKERELVAAISWSGGRTYYADSVKGRFTISRDNAKNTVYLQMNSLKPEDTAVYYCAADTYPYIGGYYWGQVTQVTVSS | high polyreactivity |
| QVQLVESGGGLVQAGGSLRLSCAASGRTFFRNAMGWYRQAPGKERELVAAISSSGGSTYADSVKGRFTISRDNAKNTVYLQMNSLKPEDTAVYYCAATVRGKRSTYDYWGQGTQVTVSS | high polyreactivity |
| QVQLVESGGGLVQAGGSLRLSCAASGRTFGIYAMGWYRQAPGKERELVAAITWSGDSTYYADSVKGRVTISRDNAKNTVYLQMNSLKPEDTAVYYGAADYVGVTSVRYDYWGQGTQVTVSS | low polyreactivity |
| QVHLVESWGGLVQAGGSLRLSCAASGSTFGYNAMGWYRQAPGKERELVAAITSGGSTNYADSVKGRFTISRDNAKNTVYLQMNSLKPEDTAVYYCAKLAADRRSYYWGQGTQVTVSS | high polyreactivity |
| QVQLVESGGRLVQAGGSLRLSCAASGRIIYGYAMGWYRQAPGKERELVATITWSGGSTYYADSVKGRFTISRDNAKNTVYLQMNSLKPEDTAVYYCAAYSPFIYQAYRYDYWGQGTLVTVSS | low polyreactivity |
| QVQLVESGGGLVQAGGSLRISCAASGRTFLSNAMGWYRQAPGKERELVAAISNGDNTYYADSVKGRFTISRDNAKNTVYLQMNSLKPEDTAVYYCAADQYWSWIYYPVVEYDYWGQGTQVTVSS | low polyreactivity |
| QVQLVESGGGLVQAGGSLRLSCAASGFIFADNAMGWYRQAPGKERELVAGITSGGITNYADSVKGRFTISRDNAKNTVYLQMNSLKQVDTAVYYCAVYYRRWFSRYDYWGQGTQVTVSS | low polyreactivity |
| QVELVESGGGLVQAGGSLRLSCAASGLTCVSYAMGWYRQAPGKERELVAAISRSGGSTYYADSVKGRFTISRDNAKNTVYLQMNSLKPVDTAVYYGNAYSYVDFCAVYRYDYWGQGTQLTVSS | high polyreactivity |
| QVQLVESGGGLVQAGGSLRLSCAASGRIFDYNAMGWYRQAPGKERELVASITQRGDITYYADSVKGRFTISRDNAKNTVYLQMNSLKPEDTAVYYCNADGVRVWVLPYVLYTGDYWGQGTQVTVSS | low polyreactivity |
| QVQLVESGLGLVQAGRSLRLSCASSGRIFNYYAMVWYRQAPGKERELVAGINWSGTRTYYADSVKGRFTISRDNAKNTVYLQMNSLKPEDTAVYYCNAGRTWRAFTGDEYWGQGTQVSVSS | high polyreactivity |
| QVQLVESGGGLVQAGGSLRLSCAASGRIFGGYAMGWYRQAPGKERELVAVITDGGSTNYADSVKRRFTISRDNAKNTVYLQMNSLKPEDTAVYYCAADSDGDEPPYDYWGQGTQVTVSS | low polyreactivity |
| QDQLVQSGLGLVQAGGSLRLSCAASGITFYWYTIAWYRQATGKERELVAAISRRGGSTSYADSVKGRFTISRDNAKNTVYLQMNSLKPEDTAVYYCAKTPGWTDYDYWGQGTQVTVSS | high polyreactivity |
| QVQLVESGGGLVQAGGSLRLSCAASGRTFWYYPMGWYRQAPGKEREFVAAISWSGGSTYYADSVKGRFTISRDNAKNTVYLQMNSLKPEDTAVYYCAADRYDSSQFYYWGQGTQVTVSS | low polyreactivity |

Reference: the nanobody polyreactivity screen of Harvey et al. (2022)
